Data on 3 molecules can be found in US20150147274A1 (CANCER RESEARCH TECHNOLOGY, published 2015).

Where a chain is given by its changes, count along the chain named.

In general, Kd refers to the free concentration of one partner at which half of the binding sites on the other are occupied at equilibrium, for simple one-to-one binding. A lower Kd goes with a tighter complex. The koff is the rate constant with which the complex falls apart. Higher therefore signals a short-lived complex. Usually kon stands for a measure of how fast the partners come together. Lower therefore signals slow association.

Test [1] deals with T1, MET928.6H (hexahistine tagged MET928) (human, UniProt P08581 25-928).
T1 construct: also called MET ectodomain; not shown: hexahistidine tag
T1 sequence (P08581 25-928): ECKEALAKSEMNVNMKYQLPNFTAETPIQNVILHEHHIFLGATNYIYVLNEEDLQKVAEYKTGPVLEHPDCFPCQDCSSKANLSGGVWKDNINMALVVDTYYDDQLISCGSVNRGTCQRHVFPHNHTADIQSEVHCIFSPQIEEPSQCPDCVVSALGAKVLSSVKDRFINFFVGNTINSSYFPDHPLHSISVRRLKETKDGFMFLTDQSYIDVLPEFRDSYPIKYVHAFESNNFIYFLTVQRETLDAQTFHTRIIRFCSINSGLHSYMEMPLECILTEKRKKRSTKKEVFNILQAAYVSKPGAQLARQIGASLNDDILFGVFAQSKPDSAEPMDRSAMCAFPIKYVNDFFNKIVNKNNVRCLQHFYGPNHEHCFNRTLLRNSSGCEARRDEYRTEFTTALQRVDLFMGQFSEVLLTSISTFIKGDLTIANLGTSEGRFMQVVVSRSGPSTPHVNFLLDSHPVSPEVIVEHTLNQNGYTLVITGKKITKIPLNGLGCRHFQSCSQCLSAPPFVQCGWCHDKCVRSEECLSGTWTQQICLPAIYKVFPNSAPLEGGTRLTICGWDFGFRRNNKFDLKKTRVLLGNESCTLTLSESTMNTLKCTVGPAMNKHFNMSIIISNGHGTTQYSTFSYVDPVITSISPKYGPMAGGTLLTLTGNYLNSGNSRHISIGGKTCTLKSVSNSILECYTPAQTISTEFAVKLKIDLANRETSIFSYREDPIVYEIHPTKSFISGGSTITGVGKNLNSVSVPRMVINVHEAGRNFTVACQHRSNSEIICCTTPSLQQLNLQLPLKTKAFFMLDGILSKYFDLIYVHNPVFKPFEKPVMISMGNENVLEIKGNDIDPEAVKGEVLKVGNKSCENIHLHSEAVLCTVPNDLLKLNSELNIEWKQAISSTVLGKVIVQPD
As to the kind of experiment: plate binding assay: 100 nM MET928.6H added to NK1-coated microplate, bound MET detected with anti-5xHis and DELFIA Eu-N1 anti-mouse IgG (time-resolved fluorescence) [right panel]. The procedure: FAb at 5-500 nM (FIG. 8) was mixed with 100 nM MET928.6H (hexahistine tagged MET928) and the mixture incubated at room temperature for one hour, prior to addition of the MET928.6H/FAb mixture to microplates coated with HGF/SF or the fragment NK1 and a further one-hour incubation. Bound MET928.6H was then detected with anti-5xHis (Qiagen) followed by DELFIA® Eu-N1 rabbit anti-mouse-IgG, exposure to DELFIA® enhancement solution and quantitation by time-resolved fluorescence on a Fusion instrument (Perkin Elmer).

Test [2] has as its target T2, MET928 (cMET protein derived from construct 25-928) (human, UniProt P08581 25-928).
T2 construct: MET ectodomain, residues 1-24 are the leader; produced in Lec 8 cells; background text says the ectodomain is furin-cleaved into alpha (25-307) and beta chains; biotinylated form used in selections; also called MET928 extracellular domain; Met extracellular domain
As to the kind of experiment: SPR (Biacore), CM5 chip coated with MET928. On the technique in general: SPR reads the build-up and loss of mass on a sensor chip optically.

Test [3] addresses T3, MET567 (MET extracellular domain aa 25-567) (human, UniProt P08581 25-567).
T3 construct: beta-propeller + cystine-rich domain
The test is described as follows: analytical size exclusion chromatography (Superdex 200 10/300) [Cont.]. The protocol:
Epitope location was analysed by analytical size exclusion chromatography. […] The mixtures were then centrifuged to remove any debris and analysed on a Superdex 200 10/300 size exclusion column (GE Life Sciences).

Test [4] concerns the target T2, MET928 (cMET protein derived from …). As to the kind of experiment: Biacore SPR.
Test [5] shares this target. As to the kind of experiment: Biacore SPR, MET928-coated surface, 1:1 kinetic analysis. The text has this:
In FIG. 15, “hinged” His-tagged, IMAC-purified Fabs were used.

T2 sequence (P08581 25-928): as above
T3 sequence (P08581 25-567): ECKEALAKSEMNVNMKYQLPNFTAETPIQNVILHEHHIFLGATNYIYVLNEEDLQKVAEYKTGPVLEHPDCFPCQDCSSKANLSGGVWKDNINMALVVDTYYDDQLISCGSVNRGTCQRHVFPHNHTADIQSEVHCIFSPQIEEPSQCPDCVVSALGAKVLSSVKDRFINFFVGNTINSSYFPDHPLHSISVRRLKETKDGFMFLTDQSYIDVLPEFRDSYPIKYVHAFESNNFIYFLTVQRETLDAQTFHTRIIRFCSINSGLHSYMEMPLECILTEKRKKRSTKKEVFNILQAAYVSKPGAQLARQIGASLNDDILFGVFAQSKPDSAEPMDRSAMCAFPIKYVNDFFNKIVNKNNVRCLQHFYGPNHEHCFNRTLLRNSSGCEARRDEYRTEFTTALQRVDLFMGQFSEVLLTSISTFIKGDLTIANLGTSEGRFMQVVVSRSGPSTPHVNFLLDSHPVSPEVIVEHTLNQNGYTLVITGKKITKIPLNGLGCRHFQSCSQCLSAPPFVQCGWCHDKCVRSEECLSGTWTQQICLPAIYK

B1: NK1 fragment of HGF/SF (produced in Pichia pastoris) (ligand)
chain: EAEAYVEGQRKRRNTIHEFKKSAKTTLIKIDPALKIKTKKVNTADQCADRCTRNKGLPFTCKAFVFDKARKQCLWFPFNSMSSGVKKEFGHEFDLYENKDYIRNCIIGKGRSYKGTVSITKSGIKCQPWSSMIPHEHSFLPSSYRGKDLQENYCRNPRGEEGGPWCFTSNPEVRYEVCDIPQCSEVE
notes: The first two (EA) or four (EAEA) amino acids may be removed during processing; also called NK1.B1; NK1.B2
As for B1, the binding result in test [1] and in test [2] was “binds” in each case.

B2: 7A2 Fab (tagless, hinged) (Fab, V domains shown)
VH: QMQLVQSGAEVKKPGAPVKVSCKVSGYTFTDYYMHWVQQAPGKGLEWMGLVDPEDGETIYAEKFQGRVTITADTSTDTAYMELSSLRSEDTAVYYCATDATTPYYGMDVWGQGTLVTVSS
VL: DIQMTQSPSSLSASVGDRVTITCQASQDISNYLNWYQQKPGRAPKVLIYDASNLETGVPSRFSGSGSGTEFTLTISNLRPDDFATYYCQQGDSFPLTFGGGTKVEIKR
notes: Purified on KappaSelect; also called Tagless 7A2
Turning to B2, the binding result in test [3] was “no binding (tested: 6 µM Fab with 4 µM MET567)”. In test [4], this molecule gave a Kd of 181 nM, a koff of 0.108 s⁻¹ and an on-rate constant (kon) of 597000 M⁻¹ s⁻¹.

B3: 107_A07 Fab (tagless, native, i.e. not hinged) (Fab, V domains shown)
VH: B2 VH with Y105W, D108M, V109W
VL: B2 VL
Turning to B3, in test [5], the Kd was 4.2 nM, the koff was found to be 0.0075 s⁻¹ and the kon stood at 1.8e+06 M⁻¹ s⁻¹. The binding result in test [3] is listed as “no binding (tested: 6 µM Fab with 4 µM MET567)”.
